In patent US20070249813A1 (AbbVie / Abbott, published 2007):

How the values were obtained:
[1] = biological target: T1, biotinylated recombinant human TNFα (human, UniProt P01375 77-233, biotinylated (D-biotinyl-ε-aminocaproic acid N-hydroxysuccinimide ester, 2:1 molar ratio of biotin to rhTNFα)); assay: SPR (BIAcore), biotinylated rhTNFα, format IgG1/IgG4
T1 construct: mature; Immobilized via streptavidin on the BIAcore chip; also called biotinylated rhTNFα; biotinylated rhTNF
Experimental: (§1) Before injection of the protein and immediately afterward, PBS buffer alone flowed through each flow cell. […] Antibodies (20 μg/ml) were diluted in PBS running buffer and 25 μl aliquots were injected through the immobilized protein matrices at a flow rate of 5 μl/min. Prior to injection of antibody, and immediately afterwards, PBS buffer alone flowed through each flow cell. The net difference in baseline signal and signal after completion of antibody injection was taken to represent the binding value of the particular sample. Biosensor matrices were regenerated using 100 mM HCI before injection of the next sample. To determine the off rate (Koff), on rate (Kₒₙ), association rate (Kₐ) and dissociation rate (Kd) constants, BIAcore kinetic evaluation software (version 2.1) was used.

recombinant human TNFα = recombinant human TNFα (human, UniProt P01375 77-233, The active form is a noncovalent homotrimer; one protomer is given.); assay: cell-based or functional assay
[2] = biological target: T1, biotinylated recombinant human TNFα; assay: SPR (BIAcore), biotinylated rhTNFα, IgG4
Experimental: as §1

[3] = biological target: T1, biotinylated recombinant human TNFα; assay: SPR (BIAcore), scFv, reference VH1-D2/LOE7
Experimental: as §1

[4] = biological target: T1, biotinylated recombinant human TNFα; assay: SPR (BIAcore), biotinylated rhTNFα, scFv
Experimental: as §1

[5] = biological target: T1, biotinylated recombinant human TNFα; assay: SPR (BIAcore), scFv; reference taken to be VH1-D2/LOE7
Experimental: as §1

recombinant human TNFα, sequence (P01375 77-233 limits assumed): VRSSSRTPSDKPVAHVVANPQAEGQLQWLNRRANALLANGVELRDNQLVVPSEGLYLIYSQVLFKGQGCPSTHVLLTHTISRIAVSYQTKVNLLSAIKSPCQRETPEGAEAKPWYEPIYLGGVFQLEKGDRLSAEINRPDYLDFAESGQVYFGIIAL
T1 sequence (P01375 77-233 limits assumed): as above

B1: VH1-D2/LOE7 (format printed as IgG1/IgG4 in Table 6, scFv/IgG1/IgG4 in Table 7) (antibody, V domains shown)
VH: QVQLVESGGGLVQPGRSLRLSCAASGFTFDDYAMHWVRQAPGKGLDWVSAITWNSGHIDYADSVEGRFAVSRDNAKNALYLQMNSLRPEDTAVYYCAKVSYLSTASSLDYWGQGTLVTVSS
VL: not shown
With B1 the koff [1] was 7.7e-05 s⁻¹ and the “IC50, neutralization of TNFα-induced L929 cytotoxicity” value (from here on “IC50, neutralization”) (recombinant human TNFα) was 340 pM.

B2: VH1-D2.N/LOE7.A IgG4 (antibody, V domains shown)
VH: QVQLVESGGGLVQPGRSLRLSCAASGFTFDDYAMHWVRQAPGKGLDWVSAITWNSGHIDYADSVEGRFAVSRDNAKNALYLQMNSLRPEDTAVYYCAKVSYLSTASSLDNWGQGTLVTVSS
VL: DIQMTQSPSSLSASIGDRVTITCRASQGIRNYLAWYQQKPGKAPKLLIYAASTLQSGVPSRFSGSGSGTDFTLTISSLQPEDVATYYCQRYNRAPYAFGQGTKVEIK
notes: IgG4
In the case of B2, the “IC50, neutralization” value (recombinant human TNFα) is reported as 62 pM and the koff [2] is reported as 3.2e-05 s⁻¹.

B3: VH1-D2.Y/LOE7.A IgG4 (antibody, V domains shown)
VH: QVQLVESGGGLVQPGRSLRLSCAASGFTFDDYAMHWVRQAPGKGLDWVSAITWNSGHIDYADSVEGRFAVSRDNAKNALYLQMNSLRPEDTAVYYCAKVSYLSTASSLDYWGQGTLVTVSS
VL: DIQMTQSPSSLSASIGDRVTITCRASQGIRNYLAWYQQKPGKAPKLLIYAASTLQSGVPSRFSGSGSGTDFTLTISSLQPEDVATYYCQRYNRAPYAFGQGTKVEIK
notes: IgG4
In the case of B3, the “IC50, neutralization” value (recombinant human TNFα) is reported as 28 pM and the koff [2] is reported as 2.7e-05 s⁻¹.

B4: VH1-D2/EP B12 scFv (scFv, V domains shown)
VH: QVQLVESGGGLVQPGRSLRLSCAASGFTFDDYAMHWVRQAPGKGLDWVSAITWNSGHIDYADSVEGRFAVSRDNAKNALYLQMNSLRPEDTAVYYCAKVSYLSTASSLDYWGQGTLVTVSS
VL: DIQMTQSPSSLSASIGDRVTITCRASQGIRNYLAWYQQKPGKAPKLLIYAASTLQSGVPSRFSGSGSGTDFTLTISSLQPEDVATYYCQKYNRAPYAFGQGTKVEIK
notes: scFv
For B4, the “fold faster off rate against LOE7” value [3] was 2 fold and the koff [4] was 0.0008 s⁻¹.

B5: VH1-D2/2SD4 VL scFv (scFv, V domains shown)
VH: QVQLVESGGGLVQPGRSLRLSCAASGFTFDDYAMHWVRQAPGKGLDWVSAITWNSGHIDYADSVEGRFAVSRDNAKNALYLQMNSLRPEDTAVYYCAKVSYLSTASSLDYWGQGTLVTVSS
VL: DIQMTQSPSSLSASIGDRVTITCRASQGIRNYLAWYQQKPGKAPKLLIYAASTLQSGVPSRFSGSGSGTDFTLTISSLQPEDVATYYCQKYNSAPYAFGQGTKVEIK
notes: scFv
B5 was tested, and the “fold faster off rate” value [5] was 5 fold, the “IC50, neutralization” value (recombinant human TNFα) was 10000 pM and the koff [4] was 0.00194 s⁻¹.

B6: VH1-D2.N/LOE7.T IgG4 (antibody, V domains shown)
VH: QVQLVESGGGLVQPGRSLRLSCAASGFTFDDYAMHWVRQAPGKGLDWVSAITWNSGHIDYADSVEGRFAVSRDNAKNALYLQMNSLRPEDTAVYYCAKVSYLSTASSLDNWGQGTLVTVSS
VL: not shown
notes: IgG4
With B6 the “IC50, neutralization” value (recombinant human TNFα) was 130 pM and the koff [2] was 2.1e-05 s⁻¹.
